Experimental data from patent US20050164361A1 (published 2005).
Where no end group is shown, it is not given here.

Tests used:
[1] = biological target: the molecule itself; assay: fibril formation kinetics (self-assembly), FIG. 5A
[2] = biological target: the molecule itself; assay: fibril formation kinetics (self-assembly), FIG. 5B
[3] = biological target: the molecule itself; assay: self-assembly into a β-sheet bilayer, FIG. 8

B1: Aβ(10-21) (amino acid residues 10-21 of SEQ ID NO: 1) (peptide)
peptide: YEVHHQKLVFFA
modifications: not fully specified
notes: Segment of β-amyloid that assembles with itself into fibrils; Many copies stand in the assembly
B1: binds [1].

B2: Aβ(10-21)H13Q (SEQ ID NO: 3) (peptide)
peptide: YEVQHQKLVFFA
notes: Aβ(10-21) with a modified amino acid residue 13 (H13Q)
B2: binds [2].

B3: Aβ(16-22) (amino acid residues 16-22 of SEQ ID NO: 1), CH3CO-KLVFFAE-NH2 (peptide)
peptide: Ac-KLVFFAE-NH2
modifications: also: self-assembles into β-sheets, nanotubes
notes: Assembles with itself into β-sheets, a rectangular bilayer, helical ribbons and nanotubes
B3: binds [3].
